Measurements published in paper PMC6901265 (2019).

Assays:
[1] = biological target: T1, EBV BRLF1 peptide on HLA-A*02:01 (human); experiment: multimer staining
T1 peptide: YVLDHLIVV

[2] = biological target: T2, tyrosinase peptide on HLA-A*02:01 (human); experiment: activation reporter or marker
T2 peptide: YMDGTMSQV

B1: WT TCR AV8.1-CAVKDTDKLIF-AJ34 BV24.1-CATSDWDDSTGELFF-BJ2.2 (TCR)
alpha AV8.1 AJ34 CDR3: CAVKDTDKLIF
beta BV24.1 BJ2.2 CDR3: CATSDWDDSTGELFF
- binding result [1]: recognises
- binding result [2]: no recognition
